For this data set, the system named is ATP. Briefly: switch fluorescence ratio, 500 uM ATP over buffer (Cy3 cluster intensity, sum of 5 cycles each) (fold (ratio)); higher = stronger signal-on switching upon ATP binding; sequences stand for … in TCGTCGGCAGCGTCAGATGTGTATAAGAGACAGTTTTTTTTTTTTTTTTTTTTTTTTT…TC. The note with it: aptamer strand: ATP DNA aptamer (quencher-CACCTGGGGGAGTATTGCGGAGGAAGG + anchor), 100 nM annealed; ATP concentration: 500 uM. In outline: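 Cy3-labelled switching-strand clusters on a modified Illumina MiSeq flow-cell were annealed to 100 nM quencher-labelled ATP aptamer and imaged first in selection buffer, then after 15 min with 500 uM ATP at 22 °C. NaOH stripping and re-annealing separated each of five buffer/ATP cycles, and clusters outside 100-1000 RFU were excluded. The fluorescence ratio sums target-cycle Cy3 intensity over buffer-cycle Cy3 intensity per cluster and averages it per switch-domain sequence.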

± gives the standard deviation of the averaged measurements.
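Also: ATP exposure 15 min at 22 °C before imaging.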

ATGCACACTC: the switch fluorescence ratio was found to be 1.225 ± 0.0043.

Regarding ATGCAGAGAG, the switch fluorescence ratio is 1.01 ± 0.031. The result for ATGCAGAGTA reads 1.01 ± 0.018; that for ATGCAGCAT, 1.06 ± 0.036; that for ATGCAGGGTT, 0.978 ± 0.053. The value for ATGCAGTGTG was 1.02 ± 0.019; that for ATGCATACTG was 1.03 ± 0.022; that for ATGCATATCG was 1 ± 0.036. The value for ATGCATGGGA was 0.987 ± 0.02. In the case of ATGCATTGTT, the switch fluorescence ratio is 1 ± 0.027.

Take ATGCCAGCGC: the switch fluorescence ratio was found to be 1.02 ± 0.025. The value for ATGCCGATCG was 1.05 ± 0.021; that for ATGCCGGGAT was 1.02 ± 0.02.

For ATGCCGGGGC, the switch fluorescence ratio was determined as 1.02 ± 0.037. On to ATGCCTGTGT, for which the switch fluorescence ratio was 0.977 ± 0.012. The result for ATGCGAAGAT reads 1.01 ± 0.011; that for ATGCGCAAGG, 1.25 ± 0.033.

For ATGCGCAGAA, the switch fluorescence ratio is 1.01 ± 0.034. The value for ATGCGCGCCG was 0.982 ± 0.037. The result for ATGCGGCTG reads 1.04 ± 0.11; that for ATGCGGTAGG, 1.01 ± 0.016; that for ATGCGTGGTA, 1.02 ± 0.041.

ATGCGTTTTG: the switch fluorescence ratio was 1.01 ± 0.017. On to ATGCTAAGCT, for which the switch fluorescence ratio was 1.013 ± 0.0096. The value for ATGCTAATTT was 0.9666 ± 0.0015; that for ATGCTACCAT was 1.05 ± 0.022. Consider ATGCTATGTG, for which the switch fluorescence ratio is 0.9752 ± 0.0055. The value for ATGCTTCGTG was 0.975 ± 0.027. On to ATGCTTTTTT, for which the switch fluorescence ratio came to 0.994 ± 0.017.

On to ATGGAAAGGT, for which the switch fluorescence ratio was determined as 1.009 ± 0.0074.

Consider ATGGAAAGTG, for which the switch fluorescence ratio was determined as 0.9599 ± 0.0071. Consider ATGGAAGCTA, for which the switch fluorescence ratio came out at 1.02 ± 0.013.

On to ATGGAAGGCG, for which the switch fluorescence ratio turned out to be 1.01 ± 0.036. The value for ATGGAATGAG was 0.998 ± 0.012; that for ATGGAGGGTG was 1.04 ± 0.031. The value for ATGGAGTGG was 1 ± 0.049; that for ATGGATAAGG was 1.01 ± 0.024.

As for ATGGATATTA, the switch fluorescence ratio came out at 1.03 ± 0.046. The result for ATGGATGAGA reads 0.989 ± 0.03; that for ATGGATGGAG, 0.99 ± 0.013; that for ATGGCAATTC, 2.51 ± 0.068. The value for ATGGCAGGG was 1.016 ± 0.0061. The value for ATGGCCTCGG was 1.02 ± 0.025; that for ATGGCGAATT was 0.995 ± 0.073; that for ATGGCGGGGA was 0.984 ± 0.052. In the case of ATGGCTAGAA, the switch fluorescence ratio is 0.985 ± 0.026. The value for ATGGCTATTT was 0.9852 ± 0.0086.

Regarding ATGGCTGGCT, the switch fluorescence ratio is 1.04 ± 0.041.

As for ATGGCTGTTT, the switch fluorescence ratio was 0.972 ± 0.0012. The value for ATGGCTTAAG was 1.006 ± 0.0055. As to ATGGGAAGGG, the switch fluorescence ratio was 1.01 ± 0.015. The value for ATGGGAGGTC was 0.97 ± 0.0071. The result for ATGGGATAAG reads 0.998 ± 0.029; that for ATGGGCGCAG, 0.99 ± 0.05. The result for ATGGGCGCGG reads 0.9903 ± 0.0066. For the sequence ATGGGCGGCG, the switch fluorescence ratio is 0.993 ± 0.021. Turning to ATGGGCTAGG, the switch fluorescence ratio is 0.9702 ± 0.0058. The value for ATGGGCTATT was 0.994 ± 0.038; that for ATGGGGAAGC was 1.03 ± 0.058. The result for ATGGGGAGGT reads 0.968 ± 0.025. The result for ATGGGGATTG reads 0.983 ± 0.048; that for ATGGGGCGTG, 0.974 ± 0.016; that for ATGGGGGATG, 0.973 ± 0.028. Turning to ATGGGGGATT, the switch fluorescence ratio amounted to 1 ± 0.025. The result for ATGGGGGCAG reads 1.03 ± 0.027. The value for ATGGGGGCGA was 0.978 ± 0.014. The result for ATGGGGGCGG reads 1 ± 0.021; that for ATGGGGGGGG, 1.01 ± 0.039; that for ATGGGGGGTG, 1 ± 0.035.

ATGGGGGTA: the switch fluorescence ratio came to 1.004 ± 0.002. As to ATGGGGGTGG, the switch fluorescence ratio is 0.99 ± 0.0087. For ATGGGGTAGG, the switch fluorescence ratio is 0.995 ± 0.022.

With ATGGGGTATG, the switch fluorescence ratio came to 0.987 ± 0.024.

In the case of ATGGGGTATT, the switch fluorescence ratio worked out at 0.989 ± 0.015. The result for ATGGGGTTGT reads 0.966 ± 0.019; that for ATGGGTATTT, 1.02 ± 0.035; that for ATGGGTCTTT, 0.9811 ± 0.0016. The result for ATGGGTGCTT reads 1.01 ± 0.039; that for ATGGGTGGGT, 0.994 ± 0.034. The value for ATGGGTTATG was 0.999 ± 0.016; that for ATGGGTTATT was 0.98 ± 0.045.

On to ATGGGTTGGA, for which the switch fluorescence ratio was found to be 1.008 ± 0.0088. The value for ATGGGTTGGT was 0.981 ± 0.016; that for ATGGGTTTGT was 1.02 ± 0.021; that for ATGGTAGATA was 1.02 ± 0.0041. The result for ATGGTAGG reads 0.9749 ± 0.0017; that for ATGGTAGGCT, 0.98 ± 0.032. The value for ATGGTAGTTG was 0.985 ± 0.018; that for ATGGTATCGT was 0.986 ± 0.018. Regarding ATGGTCTCTT, the switch fluorescence ratio amounted to 0.987 ± 0.013. The result for ATGGTCTGTT reads 1 ± 0.036; that for ATGGTGAGTT, 1 ± 0.015. The result for ATGGTGGATG reads 0.9626 ± 0.0052; that for ATGGTGGGTG, 1.03 ± 0.046; that for ATGGTGTAGC, 0.986 ± 0.016.

Take ATGGTTAACT: the switch fluorescence ratio is 1.03 ± 0.016. The value for ATGGTTAAGG was 0.9812 ± 0.0085.

On to ATGGTTGGGA, for which the switch fluorescence ratio was 0.998 ± 0.024. The value for ATGGTTGTTG was 0.9628 ± 0.0034; that for ATGGTTGTTT was 0.995 ± 0.02. The result for ATGGTTTAGA reads 1.03 ± 0.031; that for ATGGTTTGGC, 1 ± 0.049. The result for ATGTAACGTT reads 1.006 ± 0.0088; that for ATGTAAGCCC, 0.992 ± 0.022; that for ATGTAAGGGG, 0.9951 ± 0.0039. Regarding ATGTAATAA, the switch fluorescence ratio amounted to 1.022 ± 0.0049. Regarding ATGTAATAAT, the switch fluorescence ratio was found to be 0.983 ± 0.027. The value for ATGTACAATT was 1.0917 ± 0.00014; that for ATGTACAGGA was 1.05 ± 0.056. The value for ATGTACGGAT was 1.02 ± 0.059.

With ATGTACGGGG, the switch fluorescence ratio was 1.04 ± 0.028. The result for ATGTACTACT reads 1.07 ± 0.068.

For ATGTACTCGC, the switch fluorescence ratio stood at 1.08 ± 0.031.

As to ATGTAGAGAT, the switch fluorescence ratio stood at 0.97 ± 0.016. The result for ATGTAGAGG reads 0.988 ± 0.013; that for ATGTAGAGGG, 1.01 ± 0.02; that for ATGTAGGCCA, 1.04 ± 0.053. The value for ATGTAGTCGG was 0.978 ± 0.012; that for ATGTATAGGG was 1 ± 0.0019. As for ATGTATTATG, the switch fluorescence ratio turned out to be 0.956 ± 0.026.
